Data reported in patent publication CN108299557A (HANGZHOU HANSI BIOMEDICAL CO LTD, dated 2018).

What was measured:
[1] = target: T1, PD-1-his抗原 (UniProt Q15116 25-167, limits assumed); assay: binding ELISA, PD-1-his coated, HRP anti-human IgG
T1 construct: not shown: his tag

[2] = target: T2, PD-1-hIgGFc抗原 (UniProt Q15116 25-167, limits assumed); assay: competition ELISA, PD-1-hIgGFc coated, competitor PDL1-mIgG2aFc 0.6 ug/ml, HRP anti-mouse IgG
T2 construct: not shown: human IgG Fc

[3] = target: T2, PD-1-hIgGFc抗原; assay: competition ELISA, PD-1-hIgGFc coated, competitor PDL2-his tag 1.0 ug/ml, HRP anti-his tag

T2 sequence (Q15116 25-167 limits assumed): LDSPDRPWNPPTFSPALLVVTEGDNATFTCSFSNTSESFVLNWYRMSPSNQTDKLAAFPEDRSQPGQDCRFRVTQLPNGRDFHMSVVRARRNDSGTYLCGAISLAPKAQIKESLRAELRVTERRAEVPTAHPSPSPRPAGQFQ
T1 sequence (Q15116 25-167 limits assumed): as above

EC50 [1]: 0.04 nM
EC50 [2]: 0.474 nM
EC50 [3]: 1.83 nM
B1: 人源化抗体H8L2 (抗PD-1的IgG类抗体变体) (antibody)
heavy: EVQLVQSGGGLVQPGGSLKLSCAASGFTFSSYGMSWVRQAPGKGLDWVATISGGGRDTYYPDSVKGRFTISRDNSKNNLYLQMNSLRAEDTALYYCARQKGEAWFAYWGQGTLVTVSSASTKGPSVFPLAPCSRSTSESTAALGCLVKDYFPEPVTVSWNSGALTSGVHTFPAVLQSSGLYSLSSVVTVPSSSLGTKTYTCNVDHKPSNTKVDKRVESKYGPPCPPCPAPEFLGGPSVFLFPPKPKDTLMITRTPEVTCVVVDVSQEDPEVQFNWYVDGVEVHNAKTKPREEQFNSTYRVVSVLTPLHQDWLNGKEYKCKVSNKGLPSSIEKTISKAKGQPREPQVYTLPPSQEEMTKNQVSLTCLVKGFYPSDIAVEWESNGQPENNYKTTPPVLDSDGSFFLYSRLTVDKSRWQEGNVFSCSVMHEALHAHYTQKSLSLSLGK
light: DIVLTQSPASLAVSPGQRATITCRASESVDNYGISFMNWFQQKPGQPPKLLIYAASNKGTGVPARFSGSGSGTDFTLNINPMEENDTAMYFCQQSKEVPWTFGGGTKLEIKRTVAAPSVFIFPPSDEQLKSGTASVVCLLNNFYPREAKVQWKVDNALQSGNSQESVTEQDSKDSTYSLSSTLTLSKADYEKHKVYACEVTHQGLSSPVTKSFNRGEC
notes: ACC CCC CTG; CAC GCC CAC) confirms; The constant region looks like IgG4; also called 18A10 H8L2; H8L2突变体
